# Measured values taken from patent US10568949B2, “Method of eliciting an anti-tumor immune response with controlled delivery of TLR agonists in porous polymerlc devices” (President and Fellows of Harvard College, priority 2008, dated 2020).
# Experiments:
# IL-12p70 = assay: Example 7: cytokine concentrations at implant site; assay type: in vivo, C57BL/6J mice; conditions: with GM-CSF
# Description: To determine in vivo IL-12p70 concentration at the matrix implant site, adjacent tissue was excised and digested with tissue protein extraction reagent. After centrifugation, the concentrations of IL-12, in the supernatant were then analyzed with ELISA (R&D systems), according to the manufacturer's instructions.
# B16-F10 tumors = assay: Example 7: tumor infiltrating leukocyte (TIL) characterization; set-up: species or system C57BL/6J mice; conditions: mouse, in vivo
# Description: On the indicated days, B16-F10 tumors were removed from mice, and digested in 1 mg/mL collagenase II (250 U/ml) (Worthington, Lakewood, N.J.) and 0.1 mg/mL DNase for 1 hour at 37° C. Dissociated cells were filtered through a 40-μm filter, and directly stained with antibodies for phenotype characterization by fluorescence-activated cell sorting (FACS) analysis. APC-anti-CD8 and PE-Cy7-anti CD3 were used to identify T cells isolated from the B16F10 tumors. These TILs were also costained with FITC-anti-IFNγ, and PE-anti-CD107a. All antibodies were obtained from eBioscience, San Diego, Calif.
# JAWSII DCs = assay: In vitro DC migration toward CCL19 (transwell); assay type: cell-based
# Description: Migration assays were performed with 6.5 mm transwell dishes (Costar, Cambridge, Mass.) with a pore size of 5 μm. To test whether CpG-ODN stimulation may affect DC chemotaxis towards CCL19 (Peprotech, Rocky Hill, N.J.) in the presence of GM-CSF, 5×10^5 DCs stimulated with either 5 μg/ml of CpG-ODN or PEI-CPG-ODN (Charge Ratio of 7), and 0, 50 and 500 ng/ml GM-CSF were placed in the top wells and 300 ng/ml of CCL19 was placed in the bottom well. After 12 hours the cells that migrated into the bottom wells of the chamber were harvested and counted using a coulter counter. Dispersement of DCs from PEI-CpG-ODN loaded PLG matrices toward CCL19 was assessed by incorporating 5, 50 and 500 μg of condensates into PLG scaffolds (13 mm diameter, 2 mm thick that were quartered) seeded with 1×10^6 DCs and fixed onto transwells using bovine collagen (BD Biosciences, San Jose, Calif.). To test the effects of CpG stimulation in the presence of GM-CSF, 500 ng/ml of GM-CSF was supplemented into the media of the top wells with scaffolds containing 25 μg of PEI-CpG-ODN. At various timepoints, the cells that migrated into the bottom wells of the chamber were harvested and counted using a coulter counter.
# [1] = In vivo GM-CSF concentration in tissue around PLG implant; set-up: species or system C57BL/6J mice; conditions: for GM-CSF concentration in surrounding tissue: peak
# [2] = tested on: bone marrow derived dendritic cells; assay: Example 8: transwell chemotaxis and chemokinesis of bone marrow derived DCs; assay type: cell-based, C57BL/6 mice; conditions: 12 h
# Description: Primary bone-marrow-derived dendritic cells (BMDCs) were flushed from the femurs of C57BL/6 mice and cultured in 100-mm bacteriological petri dishes (Falcon number 1029/Becton Dickinson). Cell culture medium RPMI-1640 (R10) (Sigma) was supplemented with 1% Penicillin-Streptomycin (Invitrogen), 2 mM 1-Glutamine (Invitrogen), 50 μM 2-mercaptoethanol (Sigma) and 10% heat-inactivated fetal bovine serum (FBS, Invitrogen). At day 0, bone marrow leukocytes were seeded at 2×10^6 cells per 100-mm dish in 10 ml R10 medium containing 20 ng/nil granulocyte-macrophage colony-stimulating factor (GM-CSF) (Peprotech). At day 3, another 10 ml R10 medium containing 20 ng/mL GM-CSF was added. to the plates. At days 6 and 8, half of the culture supernatant was collected and centrifuged, the cell pellet was resuspended in 10 ml fresh R10 containing 20 ng/mL GM-CSF, and placed back into the original plate. The non-adherent cell population in the culture supernatant was used between days 8 and 12 for all the experiments.
# Transwell migration studies were performed by plating bone marrow derived dendritic cells in the top well of 6.5 mm transwell dishes (Costar, Cambridge, Mass.) with a pore size of 5 μm. The chemotactic effects of GM-CSF, FL (Flt3), and CCL20 on the migration of BMDCs was assessed by placing 500 ng/ml of recombinant murine GM-CSF, FL or CCL20 (Peprotech, Rocky Hill, N.J.) in the bottom wells and 3×10^5 DCs in the top wells. For chemokinesis studies, the concentration of cytokine in each compartment was equal at 500 ng/ml and 3×10^5 DCs were added to the top wells. The number of cells that migrated from the top well to the bottom well through the porous membrane was counted at the end of 12 h to quantify migration. Cells that had migrated to the bottom well were collected by treatment with 0.25% trypsin-0.03% ethylenediaminetetraacetic acid (EDTA, Invitrogen) and counted with a Z2 coulter counter (Beckman Coulter, Inc).
# dendritic cells = assay: Example 8: DC recruitment and activation in cytokine loaded PLG matrices (FACS, day 7); assay type: in vivo, C57BL/6J mice
# Description: To analyze DC recruitment by FACS analysis, scaffolds were excised and the ingrown tissue was digested into single cell suspensions using a collagenase solution (Worthingtion, 250 U/ml) that was agitated at 37° C. for 45 minutes. The cell suspensions were then poured through a 40 μm cell strainer to isolate cells from scaffold particles and the cells were pelleted and washed with cold PBS and counted using a Z2 coulter counter (Beckman Coulter). To assess, DC infiltration and activation, subsets of the total cell population isolated from PLG matrices were then stained with primary antibodies (BD Pharmingen, San Diego, Calif.) conjugated to fluorescent markers to allow for analysis by flow cytometry. APC-conjugated CD11c (dendritic cell marker), FITC-conjugated MHCII and PE-conjugated CD86 (B7, costimulatory molecule) stains were conducted for DC recruitment and activation analysis. To delineate the presence of the plasmacytoid DC subset, cells were also stained with APC-conjugated CD11c and PE-conjugated PDCA-1 (plasmacytoid DC marker). Cells were gated according to single positive FITC, APC and PE stainings using isotype controls. The percentage of cells staining positive for each surface antigen was recorded.
# [3] = tested on: TRP-2-specific cytotoxic T lymphocytes; assay: Example 8: TRP-2-specific cytotoxic T lymphocytes in spleens (Day 10); set-up: species or system C57BL/6J mice; conditions: mouse, in vivo
# Description: To determine the generation of TRP-2-specific cytotoxic T lymphocytes, single cell suspensions were prepared at Day 10 from the spleens of mice immunized with PLG vaccines. These cells were initially stained with PE-H-2Kb/TRP2 pentamers (Sigma Aldrich), and subsequently stained with FITC-anti-CD8 and PE-CY7 CD3 mAb (mAb (BD Pharmingen, San Diego) before being analyzed using flow cytometry.
Molecule,effect on IFN-α concentration at vaccine site (IL-12p70),"increase in IFNγ(+), CD107a(+) TILs in comparison to controls (B16-F10 tumors)",concentration that inhibited DC migration toward CCL19 (JAWSII DCs),day of secondary peak for GM-CSF in vivo ([1]; 3000 ng dose),day of secondary peak for GM-CSF in vivo ([1]; 7000 ng dose),GM-CSF concentration difference over no incorporated GM-CSF ([1]; 12 hours post-implantation),"period elevated GM-CSF levels were maintained ([1]; mouse, in vivo)","GM-CSF concentration in surrounding tissue ([1]; 12 hours post-implantation, 1-3 mm from implant site)","GM-CSF concentration in surrounding tissue ([1]; 12 hours post-implantation, 3-5 mm from implant site)","DC chemotaxis, migration higher than control condition ([2]; 500 ng/ml in bottom wells)","DC chemokinesis, increase in number of migrated cells ([2]; homogenous cytokine 500 ng/ml)",DC recruitment relative to blank PLG matrices (dendritic cells; day 7),MHCII(+) and CD86(+) DCs of total DCs recruited (dendritic cells; in combination with CpG-ODN),increase in total number of activated DCs relative to control matrices devoid of cytokines (dendritic cells; in combination with CpG-ODN),resident CD11c(+)PDCA-1(+) pDCs (dendritic cells; in combination with CpG-ODN),"Trp2 specific CTLs in spleens, higher than control vaccines [3]"
CpG-ODN 1826,elevated levels,approximately 6.1 fold,,,,,,,,,,,,,,
"granulocyte macrophage colony stimulating factor (protein, UniProt P01587 18-141, looked up, cytokine encapsulated in and released from PLG matrices to recruit DCs) Granulocyte-macrophage …: APTRSPITVTRPWKHVEAIKEALNLLDDMPVTLNEEVEVVSNEFSFKKLTCVQTRLKIFEQGLRGNFTKLKGALNMTASYYQTYCPPTPETDCETQVTTYADFIDSLKTFLTDIPFECKKPGQK",,,> 100 ng/mL,5 days,7 days,> 30 fold,approximately 10 days,100 µg/mL,30 µg/mL,approximately 50%,50%,> 5 fold,54-66%,Approximately 8 fold,"approximately 110,000",~4 fold
